Laboratory results reported in PMC314469, “Protein Interaction Networks by Proteome Peptide Scanning” (PLoS Biology, 2004).

T1: Boi2 SH3 (BOI2_YEAST), P39969
T1 chain: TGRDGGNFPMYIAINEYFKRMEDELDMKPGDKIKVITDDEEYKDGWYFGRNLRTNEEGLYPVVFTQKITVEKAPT

T2: Boi1 SH3 (BOI1_YEAST), P38041
T2 chain: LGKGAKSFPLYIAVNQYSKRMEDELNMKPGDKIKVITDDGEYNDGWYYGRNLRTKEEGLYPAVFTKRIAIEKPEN

T3: Myo5 SH3 (MYO5_YEAST), Q04439
T3 chain: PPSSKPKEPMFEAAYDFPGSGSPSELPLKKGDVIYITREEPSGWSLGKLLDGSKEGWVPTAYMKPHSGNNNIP

T4: Rvs167 SH3 (RV167_YEAST), P39743
T4 chain: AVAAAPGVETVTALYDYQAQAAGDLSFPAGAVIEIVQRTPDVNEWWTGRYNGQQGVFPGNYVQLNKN

T5: Yhr016c SH3 (YSC84_YEAST), P32793
T5 chain: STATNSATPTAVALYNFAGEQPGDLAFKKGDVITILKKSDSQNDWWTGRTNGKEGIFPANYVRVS

T6: Yfr024 SH3 (LSB3_YEAST), P43603
T6 chain: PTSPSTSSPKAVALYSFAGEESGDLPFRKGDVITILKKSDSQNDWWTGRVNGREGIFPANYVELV


Assays:
Experiment in all cases: SPOT array
[1] = biological target: T1, Boi2 SH3 (BOI2_YEAST), P39969
[2] = biological target: T2, Boi1 SH3 (BOI1_YEAST), P38041
[3] = biological target: T3, Myo5 SH3 (MYO5_YEAST), Q04439
[4] = biological target: T4, Rvs167 SH3 (RV167_YEAST), P39743
[5] = biological target: T5, Yhr016c SH3 (YSC84_YEAST), P32793
[6] = biological target: Sho1 SH3 (SHO1_YEAST), P40073
Sho1 SH3 (SHO1_YEAST), P40073, sequence (P40073 295-366): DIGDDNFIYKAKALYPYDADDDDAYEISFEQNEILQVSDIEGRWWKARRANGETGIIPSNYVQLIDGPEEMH

[7] = biological target: T6, Yfr024 SH3 (LSB3_YEAST), P43603

normalised SPOT signal, Boehringer light units (BLU); mean over the file's lines of this peptide [1] | normalised SPOT signal, Boehringer light units (BLU); mean over the file's lines of this peptide [2] | normalised SPOT signal, Boehringer light units (BLU); mean over the file's lines of this peptide [3] | normalised SPOT signal, Boehringer light units (BLU); mean over the file's lines of this peptide [4] | normalised SPOT signal, Boehringer light units (BLU); mean over the file's lines of this peptide [5] | normalised SPOT signal, Boehringer light units (BLU); mean over the file's lines of this peptide [6] | normalised SPOT signal, Boehringer light units (BLU); mean over the file's lines of this peptide [7] | Binder
50.2 | 66.8 | 420 | 284 | 299 | 191 | 2450 | NPMQKPVPFVPVLD [YKL182W 1009-1022]
37.7 | 105 | 164 | 33.3 | 42.8 | 47.5 | 145 | NQIARQIPYQPWYL [YDR107C 515-528]
16.9 | 178 | 423 | 155 | 113 | 1460 | 1510 | NSNVRIPPTVPSKI [YGR198W 3-16]
34.2 | 203 | 160 | 82.4 | 57.1 | 106 | 58.8 | NSFSKNDPNFPILK [YFL036W 156-169]
102 | 481 | 956 | 722 | 1830 | 147 | 821 | NSTVRRKPHSPNKK [YDR223W 8-21]
7.9 | 225 | 364 | 7.3 | 467 | 28.7 | 88.1 | NPIPKSVPLHPKSG [YEL019C 6-19]
219 | 1170 | 235 | 524 | 1260 | 1820 | 1280 | NSFRKILPQEPEIW [YBR055C 389-402]
0 | 53.9 | 112 | 43.4 | 16.6 | 25.7 | 22.7 | NSGEKIYPQEPPIS [YJL020C 582-595]
17.6 | 49.7 | 272 | 72.3 | 10.4 | 144 | 63.3 | NTIIKFDPGRPIYN [YKL178C 251-264]
0 | 545 | 205 | 109 | 77.6 | 21.7 | 58 | NRANKYDPKGPIYN [YOL049W 169-182]
36.1 | 22.9 | 248 | 100 | 50.4 | 75.8 | 312 | NQIARQIPFQPWYL [YLR083C 510-523]
35 | 228 | 151 | 251 | 296 | 35.5 | 241 | NSVIRGSPGLPDTL [YPL066W 13-26]
77.3 | 2120 | 491 | 307 | 521 | 183 | 1250 | NRKQRSIPLSPIVP [YEL009C 209-222]
